# Test results from patent publication US20190255165A1 (AMAL THERAPEUTICS, published 2019).
# Tests used:
# [1] = target: T1, human TLR4 (human, UniProt O00206 24-839); assay: inferred from IL-8 secretion (ELISA) of HEK-hTLR4 cells, 1 µM
# T1 construct: whole, on cells; Presented on HEK-hTLR4 cells; also called hTLR4
# [2] = target: T2, human TLR2 (human, UniProt O60603 21-784); assay: inferred from HEK-Blue hTLR2 reporter cells (QuantiBlue OD and IL-8 ELISA)
# T2 construct: whole, on cells; Presented on HEK-Blue hTLR2 reporter cells; also called hTLR2
# T2 sequence (O60603 21-784): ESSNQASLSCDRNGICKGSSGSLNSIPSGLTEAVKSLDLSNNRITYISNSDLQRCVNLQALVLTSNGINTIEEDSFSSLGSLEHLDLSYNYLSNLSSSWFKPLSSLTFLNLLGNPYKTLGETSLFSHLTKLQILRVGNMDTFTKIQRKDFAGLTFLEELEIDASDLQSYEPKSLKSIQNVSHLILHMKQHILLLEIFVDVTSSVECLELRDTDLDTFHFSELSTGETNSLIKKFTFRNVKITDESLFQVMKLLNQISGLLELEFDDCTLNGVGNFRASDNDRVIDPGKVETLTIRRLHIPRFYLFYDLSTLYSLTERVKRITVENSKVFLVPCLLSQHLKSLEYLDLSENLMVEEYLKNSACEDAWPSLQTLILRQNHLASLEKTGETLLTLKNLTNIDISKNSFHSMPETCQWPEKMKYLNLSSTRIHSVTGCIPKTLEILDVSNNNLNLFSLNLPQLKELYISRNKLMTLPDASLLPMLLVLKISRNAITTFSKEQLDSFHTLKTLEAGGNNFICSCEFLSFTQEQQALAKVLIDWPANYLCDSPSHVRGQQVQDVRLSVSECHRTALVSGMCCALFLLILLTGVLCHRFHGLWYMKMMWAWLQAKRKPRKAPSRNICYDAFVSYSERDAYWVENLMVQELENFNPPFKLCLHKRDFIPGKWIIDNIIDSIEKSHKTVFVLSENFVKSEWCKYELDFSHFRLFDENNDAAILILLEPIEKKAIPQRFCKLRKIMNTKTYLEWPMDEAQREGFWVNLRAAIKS
# T1 sequence (O00206 24-839): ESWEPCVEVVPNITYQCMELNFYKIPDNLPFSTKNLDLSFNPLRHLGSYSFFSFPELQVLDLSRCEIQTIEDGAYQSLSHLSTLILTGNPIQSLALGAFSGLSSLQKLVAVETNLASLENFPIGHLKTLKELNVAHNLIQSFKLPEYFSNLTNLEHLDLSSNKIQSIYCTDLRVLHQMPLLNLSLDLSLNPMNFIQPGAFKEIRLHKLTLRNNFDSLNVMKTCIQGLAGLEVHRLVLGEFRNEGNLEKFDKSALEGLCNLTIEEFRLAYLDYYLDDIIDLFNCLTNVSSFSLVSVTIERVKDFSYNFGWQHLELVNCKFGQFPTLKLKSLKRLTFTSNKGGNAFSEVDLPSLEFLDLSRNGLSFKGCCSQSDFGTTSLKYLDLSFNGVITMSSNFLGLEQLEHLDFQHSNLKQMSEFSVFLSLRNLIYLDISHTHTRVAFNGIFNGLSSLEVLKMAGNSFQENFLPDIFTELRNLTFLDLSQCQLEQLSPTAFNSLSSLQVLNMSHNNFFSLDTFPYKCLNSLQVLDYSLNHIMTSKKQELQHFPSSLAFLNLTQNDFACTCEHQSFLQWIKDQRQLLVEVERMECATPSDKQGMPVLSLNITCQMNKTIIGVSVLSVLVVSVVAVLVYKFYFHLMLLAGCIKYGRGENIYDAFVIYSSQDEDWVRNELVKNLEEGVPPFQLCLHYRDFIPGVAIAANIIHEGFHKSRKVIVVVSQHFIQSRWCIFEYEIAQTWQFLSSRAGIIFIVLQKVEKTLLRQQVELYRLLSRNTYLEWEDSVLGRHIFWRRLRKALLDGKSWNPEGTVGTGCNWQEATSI
Binder,binding result [1],binding result [2]
"EDAZ13Mad5 (other, Recombinant fusion protein with N-terminal MHHHHHH; 25,057 Da; also called fusion protein of TLR4 peptide agonist EDA (N-terminal), Z13 and MAD5 cargo) MHHHHHHNIDRPKGLAFTDVDVDSIKIAWESPQGQVSRYRVTYSSPEDGIRELFPAPDGEDDTAELQGLRPGSEYTVSVVALHDDMESQPLIGIQSTKRYKNRVASRKSRAKFKQLLQHYREVAAAKSSENDRLRLLLKESLKISQAVHAAHAEINEAGREVVGVGALKVPRNQDWLGVPRFAKFASFEAQGALANIAVDKANLDVEQLESIINFEKLTEWTGS",binds,
"Z13Mad5Anaxa (other, Recombinant fusion protein with N-terminal MHHHHHH; 18973 Da; also called fusion protein of cell-penetrating peptide Z13, MAD5 cargo and TLR peptide agonist Anaxa (C-terminal)) MHHHHHHKRYKNRVASRKSRAKFKQLLQHYREVAAAKSSENDRLRLLLKESLKISQAVHAAHAEINEAGREVVGVGALKVPRNQDWLGVPRFAKFASFEAQGALANIAVDKANLDVEQLESIINFEKLTEWTGSSTVHEILCKLSLEGDHSTPPSAYGSVKPYTNFDAE",binds,binds
"AnaxaZ13Mad5 (other, Recombinant fusion protein with N-terminal MHHHHHH; 18973 Da; also called AnaxZ13Mad5; fusion protein with Anaxa at the N-terminal position, Z13 and MAD5 cargo) MHHHHHHSTVHEILCKLSLEGDHSTPPSAYGSVKPYTNFDAEKRYKNRVASRKSRAKFKQLLQHYREVAAAKSSENDRLRLLLKESLKISQAVHAAHAEINEAGREVVGVGALKVPRNQDWLGVPRFAKFASFEAQGALANIAVDKANLDVEQLESIINFEKLTEWTGS",,binds
